{"source": "patent US20110294730A1", "about": "“METHOD OF TREATING GLAUCOMA AND INTRAOCULAR HYPERTENSION” (priority 2010, published 2011)", "origin": "cited, not measured here", "test_system": "trabecular meshwork", "data": [{"molecule": "IL-Ia: exogenous growth factor (protein, UniProt P01583 113-271, looked up) Interleukin-1 alpha: SAPFSFLSNVKYNFMRIIKYEFILNDALNQSIIRANDQYLTAAALHNLDEAVKFDMGAYKSSKDDAKITVILRISKTQLYVTAQDEDQPVLLKEMPEIPKTITGSETNLLFFWETHGTKNYFTSVAHPNLFIATKQDYWVCLAGGPPSITDFQILENQA", "values": [{"measurement": "extracellular acidification", "result": "significantly stimulated"}]}]}
